Measured values as given in patent US20260209362A1 (VIB VZW, published 2026).

T1: biotinylated recombinant human IL-12Rβ2 (human, UniProt Q99665 24-622, random biotinylated)
T1 construct: Recombinant protein produced in-house, biotinylated; also called hIL-12RB2; human IL-12RB2
T1 sequence: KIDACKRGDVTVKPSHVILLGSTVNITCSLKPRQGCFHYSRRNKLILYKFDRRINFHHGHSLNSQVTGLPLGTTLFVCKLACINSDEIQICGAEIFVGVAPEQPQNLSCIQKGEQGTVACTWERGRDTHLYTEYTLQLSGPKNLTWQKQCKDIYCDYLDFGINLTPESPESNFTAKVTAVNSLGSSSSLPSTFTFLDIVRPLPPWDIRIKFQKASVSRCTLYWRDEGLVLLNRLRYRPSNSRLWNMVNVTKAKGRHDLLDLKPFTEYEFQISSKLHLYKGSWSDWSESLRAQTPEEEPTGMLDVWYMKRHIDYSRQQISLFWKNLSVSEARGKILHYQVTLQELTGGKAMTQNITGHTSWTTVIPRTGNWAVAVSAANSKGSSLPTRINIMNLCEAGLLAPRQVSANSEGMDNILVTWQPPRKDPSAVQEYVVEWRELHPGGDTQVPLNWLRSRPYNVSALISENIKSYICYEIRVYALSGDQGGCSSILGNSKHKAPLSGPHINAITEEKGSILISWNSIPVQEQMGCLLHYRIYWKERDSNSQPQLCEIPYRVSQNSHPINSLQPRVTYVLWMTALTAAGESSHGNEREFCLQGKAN

T2: biotinylated recombinant mouse IL-12Rβ2 (mouse, UniProt P97378 24-637, random biotinylated)
T2 construct: Recombinant protein produced in-house, biotinylated; also called mIL-12RB2; mouse IL-12RB2
T2 sequence: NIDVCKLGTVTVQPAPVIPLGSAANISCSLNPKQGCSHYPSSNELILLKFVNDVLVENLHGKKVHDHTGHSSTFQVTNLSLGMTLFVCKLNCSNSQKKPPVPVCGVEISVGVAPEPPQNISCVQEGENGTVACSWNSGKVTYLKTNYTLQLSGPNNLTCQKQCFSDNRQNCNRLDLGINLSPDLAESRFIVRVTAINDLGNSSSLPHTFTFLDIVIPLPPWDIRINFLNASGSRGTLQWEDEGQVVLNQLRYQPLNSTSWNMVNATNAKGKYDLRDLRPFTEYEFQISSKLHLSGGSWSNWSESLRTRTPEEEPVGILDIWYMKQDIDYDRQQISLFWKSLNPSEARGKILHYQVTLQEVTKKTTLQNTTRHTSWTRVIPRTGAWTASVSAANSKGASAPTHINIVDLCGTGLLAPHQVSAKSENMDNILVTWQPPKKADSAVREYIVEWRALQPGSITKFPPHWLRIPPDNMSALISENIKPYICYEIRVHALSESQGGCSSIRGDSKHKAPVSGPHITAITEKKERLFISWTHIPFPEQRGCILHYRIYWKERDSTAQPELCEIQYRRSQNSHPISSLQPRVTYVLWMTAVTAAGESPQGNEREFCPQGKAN

T3: biotinylated recombinant human IL-12Rβ2 (produced in-house) (human, UniProt Q99665 24-622, randomly biotinylated)
T3 construct: also called hIL-12RB2; human IL-12RB2
T3 sequence: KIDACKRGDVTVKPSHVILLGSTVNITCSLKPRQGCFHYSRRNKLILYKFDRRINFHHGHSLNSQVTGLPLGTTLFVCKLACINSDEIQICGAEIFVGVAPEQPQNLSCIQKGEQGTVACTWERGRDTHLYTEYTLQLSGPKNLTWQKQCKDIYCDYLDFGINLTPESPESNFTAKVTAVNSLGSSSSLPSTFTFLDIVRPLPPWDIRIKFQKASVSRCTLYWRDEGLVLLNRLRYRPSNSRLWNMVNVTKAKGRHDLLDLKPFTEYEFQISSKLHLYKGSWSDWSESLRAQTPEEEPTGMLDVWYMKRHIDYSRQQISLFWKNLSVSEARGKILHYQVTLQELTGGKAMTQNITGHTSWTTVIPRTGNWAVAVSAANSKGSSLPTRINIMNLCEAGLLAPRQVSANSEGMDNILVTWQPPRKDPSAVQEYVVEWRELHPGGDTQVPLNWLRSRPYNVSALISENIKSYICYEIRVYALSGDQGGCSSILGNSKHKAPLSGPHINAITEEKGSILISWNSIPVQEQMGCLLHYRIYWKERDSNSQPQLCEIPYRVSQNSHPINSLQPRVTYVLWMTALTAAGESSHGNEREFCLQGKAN

T4: biotinylated recombinant mouse IL-12Rβ2 (produced in-house) (mouse, UniProt P97378 24-637, randomly biotinylated)
T4 construct: also called mIL-12RB2; mouse IL-12RB2
T4 sequence: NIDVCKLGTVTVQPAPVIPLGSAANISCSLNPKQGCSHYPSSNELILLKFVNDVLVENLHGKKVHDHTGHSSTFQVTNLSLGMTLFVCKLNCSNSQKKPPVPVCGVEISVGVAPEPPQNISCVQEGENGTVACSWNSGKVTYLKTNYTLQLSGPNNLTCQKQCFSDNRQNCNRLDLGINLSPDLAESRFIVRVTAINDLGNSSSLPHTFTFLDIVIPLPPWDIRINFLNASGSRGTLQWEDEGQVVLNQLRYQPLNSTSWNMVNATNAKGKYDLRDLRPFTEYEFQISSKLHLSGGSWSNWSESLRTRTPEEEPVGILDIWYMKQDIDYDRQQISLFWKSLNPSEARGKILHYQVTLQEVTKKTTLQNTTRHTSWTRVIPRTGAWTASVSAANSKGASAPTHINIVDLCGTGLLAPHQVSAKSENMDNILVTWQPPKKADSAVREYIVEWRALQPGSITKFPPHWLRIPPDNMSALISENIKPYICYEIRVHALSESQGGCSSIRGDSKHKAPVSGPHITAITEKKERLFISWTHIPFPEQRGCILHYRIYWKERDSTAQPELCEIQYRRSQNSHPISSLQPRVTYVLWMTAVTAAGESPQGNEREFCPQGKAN


Columns and labels:
[1] = target: T1, biotinylated recombinant human IL-12Rβ2; assay: BLI (Octet), periplasmic extract on biotinylated hIL-12Rβ2 on streptavidin tips
[2] = target: T1, biotinylated recombinant human IL-12Rβ2; assay: ELISA, periplasmic extract on biotinylated hIL-12Rβ2, signal over control wells
[3] = target: T2, biotinylated recombinant mouse IL-12Rβ2; assay: ELISA, periplasmic extract on biotinylated mIL-12Rβ2, signal over control wells
[4] = target: T1, biotinylated recombinant human IL-12Rβ2; assay: BLI (Octet), periplasmic extract on biotinylated hIL-12Rβ2 on streptavidin tips, 1:1 model
[5] = target: T3, biotinylated recombinant human IL-12Rβ2 …; assay: ELISA, periplasmic extract on biotinylated human IL-12Rβ2; control streptavidin-coated blocked wells
[6] = target: T4, biotinylated recombinant mouse IL-12Rβ2 …; assay: ELISA, periplasmic extract on biotinylated mouse IL-12Rβ2; control streptavidin-coated blocked wells

Binder | Response [1] | ELISA binding hIL-12RB2/control [2] [ratio] | ELISA binding mIL-12RB2/control [3] [ratio] | koff [4] [s⁻¹] | ELISA binding hIL-12RB2/control [5] | ELISA binding mIL-12RB2/control [6]
anti-IL-12Rβ2 VHH clone 20370 (VHH, not shown: small tags and cut ends, tested as periplasmic extract; also called 2CRH76) VHH: QVQLQESGGGLVQTGGSLRLSCVASGRTFNWSAMGWFRQPPGKEREVVATISGGGTSAYYADSVKGRFTISRDGAKNTLYLQMNSLKPEDTAVYYCAADRVDYRMTLTQNGNHYWGQGTQVTVSS | 0.479 | 4.57 | 0.937 | 0.00354 |  | 
anti-IL-12Rβ2 VHH clone 20372 (VHH, not shown: small tags and cut ends, tested as periplasmic extract; also called 2CRH82) VHH: QVQLQESGGGLVQAGGSLRLSCAASARTESMYAMAWFRQAPGKEREIVAGIIQSGGTTYISDYMKGRFSIDRGNAENTVYLQMDSLKPEDTAVYSCAAKVSSGTPSDIQISQSRWYDHWGQGTQVTVSS | 0.426 | 16.1 | 1.77 | 0.00274 |  | 
anti-IL-12Rβ2 VHH clone 20389 (VHH, not shown: small tags and cut ends, tested as periplasmic extract; also called 3CRH73) VHH: QVQLQESGGGLVRAGGSLRLSCAASGHTFSNYVMGWFRQAPGKEREFVAAISWGGSNTYYADSVKGRFTISRDNAKNTVYLQMNSLKVEDTAVYYCAADRRFEGWNYYSMDYWGKGTQVTVSS | 0.565 | 6.45 | 1.18 | 0.0052 |  | 
anti-IL-12Rβ2 VHH clone 2CRM40 (VHH, Tested as periplasmic extract; CDR3 group 24; also called 20448) VHH: QVQLQESGGGLVQTGGSLRLSCAASGRTYAMAWFRQAPGKEREFAAVIIGGDRTYYANSVKDRFTISRDNAKETVYLQMNNLKPEDTAVYYCAANRRLYNSGRGYSQSEYEYWGQGTQVTVSS |  |  |  |  | 0.993 ratio to control | 5.86 ratio to control
anti-IL-12Rβ2 VHH clone 3CAM10 (VHH, Tested as periplasmic extract; CDR3 group 25; also called 20507) VHH: QVQLQESGGGLVQAGGSLRLSCAASGRTFSDYPMAWFRQAPGKEREFVAGISNGGTAYYADSVKGRFTISRDNTRNTVYLQMNRLKVEDTAVYYCAAVHLLSNLRGADPHEADYWGQGTQVTVSS |  |  |  |  | 1.14 ratio to control | 40.9 ratio to control
anti-IL-12Rβ2 VHH clone 3CAMS63 (VHH, Tested as periplasmic extract; CDR3 group 26; also called 20552) VHH: QVQLQESGGGLVQAGGSLRLSCAASGRTFSNYAMGWFRQAPGKEREFVAAINRSGTTLYVDSVKGRFTISRDNAKNTVALQMNSLKPEDTAVYYCVAGMPFSYSDYPRDSKYDYWGQGTQVTVSS |  |  |  |  | 1.01 ratio to control | 9.78 ratio to control
anti-IL-12Rβ2 VHH clone 2CAM47 (VHH, Tested as periplasmic extract; CDR3 group 27; also called 20487) VHH: QVQLQESGGGVVQEGASLRLSCAASGRNLSTYAMGWIRQAPGKEREFVAAISWAGSTTYYADSVKGRFIISRDNAKNTLNLQMNSLKPEDTAVYYCAAPPYVTTTYYATPPSDIRDYHYWGQGTQVTVSS |  |  |  |  | 0.969 ratio to control | 4.91 ratio to control
anti-IL-12Rβ2 VHH clone 3CAM11 (VHH, Tested as periplasmic extract; CDR3 group 27; also called 20508) VHH: QVQLQESGGGLVQAGGSLRLSCAASGRNLSTYAMGWIRQAPGKEREFVAAISWAGSTTYYADSVKGRFIISRDNAKNTLNLQMNSLKPEDTAVYYCAAPPYVTTTYYATPPSDIRDYHYWGQGTQVTVSS |  |  |  |  | 1.31 ratio to control | 6.6 ratio to control
anti-IL-12Rβ2 VHH clone 2CAM56 (VHH, Tested as periplasmic extract; CDR3 group 28; also called 20490) VHH: QVQLQESGGGEVQAGGSLRLSCVASGRTFSVYTTGWFRQAPGKERELVAGMSGTRTYYADSVKGRFTISRDNAKNTVYLQMNSLKPDDTAVYYCAERRYGGPSLVWDEYDYRGQGTQVTVSS |  |  |  |  | 0.918 ratio to control | 5.21 ratio to control
anti-IL-12Rβ2 VHH clone 2CAM67 (VHH, Tested as periplasmic extract; CDR3 group 28; also called 20494) VHH: QVQLQESGGGEVQAGGSLRLSCVASGRTFSVYTTGWFRQAPGKEREFVAGMSGTRTYYADSVKGRFTISRDNAKNTVYLQMNSLKPDDTAVYYCAERRYGGPSLVWDEYDYRGQGTQVTVSS |  |  |  |  | 0.87 ratio to control | 7.74 ratio to control
